{"source": "patent US20160237143A1", "about": "(OSTERREICHISCHE AKADEMIE DER WISSENSCHAFTEN, published 2016)", "binders": {"B1": {"name": "monoclonal anti-HPV 16 E7 antibody of the present invention (rabbit monoclonal, hybridoma Klon 42-3-78, DSM ACC3034) (antibody, V domains shown)", "VH": "QSLEESGGRLVTPGGSLTLTCTVSGIDLSTYEISWVRQAPGKGLEWIGIIGTSANTVYASWAKGRFTISKSSTTVDLRVTSLTTEDTATYFCARAYDEYGIHAFHPWGPGTLVTVSS", "VL": "AQVLTQTPSPVSAAVGGTVTINCQASQSVYNAKNLAWYQQKPGQPPKLLIYQASTLASGVPSRFKGSGSGTQFTLTISGVQCDDAATYYCQGEFSCSSADCNVFGGGTEVVVKG", "notes": "Rabbit IgG purified from hybridoma supernatant on Protein G; used plain or biotinylated; also called monoclonal antibody against HPV 16 E7; RabMab"}}, "key": {"[1]": {"target": "T1, HPV 16 E7 derived synthetic 13mer peptide 43 (amino acids 85 to 97) (human papillomavirus type 16)", "T1 construct": "Immobilised on a peptide microarray", "T1 peptide": "GTLGIVCPICSQK", "experiment": "peptide microarray, anti-rabbit-Cy5", "method": "(§1) HPV 16 E7 epitopes were analyzed by JPT Peptide Technologies GmbH (Berlin, Germany) using peptide microarrays. […] The determination of peptide-antibody binding was performed by RepliTope-analysis where the peptide microarray was incubated with the primary antibody followed by a fluorescently labelled secondary antibody (anti-rabbit-Cy5). After washing the peptide microarrays were dried using a microarray centrifuge and scanned in a high resolution microarray scanning system with appropriate wavelength settings."}, "[2]": {"target": "T2, HPV 16 E7 derived synthetic 13mer peptide 44 (amino acids 86 to 98) (human papillomavirus type 16)", "T2 construct": "Immobilised on a peptide microarray", "T2 peptide": "TLGIVCPICSQKP", "experiment": "peptide microarray, anti-rabbit-Cy5", "method": "as §1"}, "HPV 11 E7 protein": {"target": "T3, HPV 11 E7 protein (human papillomavirus type 11, UniProt P04020 1-98)", "T3 construct": "also called low-risk HPV type 11 E7", "T3 sequence": "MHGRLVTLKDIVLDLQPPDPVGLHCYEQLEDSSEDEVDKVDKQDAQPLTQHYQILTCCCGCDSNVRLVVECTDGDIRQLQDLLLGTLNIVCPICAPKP", "experiment": "direct ELISA, coated recombinant E7, biotinylated antibody"}, "HPV 18 E7 protein": {"target": "T4, HPV 18 E7 protein (human papillomavirus type 18, UniProt P06788 1-105)", "T4 construct": "also called E7 protein of HPV 18", "T4 sequence": "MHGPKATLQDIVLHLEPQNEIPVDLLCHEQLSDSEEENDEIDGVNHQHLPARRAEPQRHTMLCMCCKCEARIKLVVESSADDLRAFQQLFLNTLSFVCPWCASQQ", "experiment": "confocal immunofluorescence on U-2OS cells overexpressing E7"}, "HPV 45 E7 protein": {"target": "T5, HPV 45 E7 protein (human papillomavirus type 45, UniProt P21736 1-106)", "T5 construct": "also called E7 protein of HPV 45", "T5 sequence": "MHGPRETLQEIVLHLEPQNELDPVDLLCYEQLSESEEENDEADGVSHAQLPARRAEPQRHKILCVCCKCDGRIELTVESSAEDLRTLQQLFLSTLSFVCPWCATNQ", "experiment": "confocal immunofluorescence on U-2OS cells overexpressing E7"}, "HPV 16 E7 mutant C58G": {"target": "T6, HPV 16 E7 mutant C58G (human papillomavirus type 16, UniProt P03129 1-98)", "T6 sequence": "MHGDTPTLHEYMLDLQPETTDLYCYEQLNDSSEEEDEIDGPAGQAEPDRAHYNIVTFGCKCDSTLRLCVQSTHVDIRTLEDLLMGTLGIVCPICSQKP", "experiment": "indirect immunofluorescence on transiently transfected U-2OS cells"}, "HPV 16 E7 mutant C91G": {"target": "T7, HPV 16 E7 mutant C91G (human papillomavirus type 16, UniProt P03129 1-98)", "T7 sequence": "T6 sequence with G58C, C91G", "experiment": "indirect immunofluorescence on transiently transfected U-2OS cells"}, "[3]": {"target": "T8, HPV 16 E7 mutant C58G/C91G (human papillomavirus type 16, UniProt P03129 1-98)", "T8 sequence": "T6 sequence with C91G", "experiment": "indirect immunofluorescence on transiently transfected U-2OS cells"}}, "note": "Numbering of substitutions follows the chain as printed."}
{"binder": "B1", "values": [{"measurement": "binding result", "setting": "[1]", "value": "binds"}, {"measurement": "binding result", "setting": "[2]", "value": "binds"}, {"measurement": "binding result", "setting": "HPV 11 E7 protein", "value": "no binding (tested: 2.5 and 10 ng coated E7 protein)"}, {"measurement": "binding result", "setting": "HPV 18 E7 protein", "value": "no binding (tested: 25 µg/ml)"}, {"measurement": "binding result", "setting": "HPV 45 E7 protein", "value": "no binding (tested: 25 µg/ml)"}, {"measurement": "binding result", "setting": "HPV 16 E7 mutant C58G", "value": "no binding"}, {"measurement": "binding result", "setting": "HPV 16 E7 mutant C91G", "value": "no binding"}, {"measurement": "binding result", "setting": "[3]", "value": "no binding"}]}
